Results from the supplement of paper PMC5998384.

What was measured:
HeLa Kyoto [1] = experiment: solubility in G1/S (NP-40 vs SDS abundance) (log2 ratio); higher = more soluble; settings: cell cycle stage: G1/S
HeLa Kyoto [2] = experiment: solubility change mitosis vs G1/S (difference of NP-40 vs SDS log2 ratios) (log2 ratio difference); higher = more soluble in mitosis
HeLa Kyoto [3] = experiment: thermal stability score vs G1/S (z-score of summed log2 fold changes over temperatures); higher = more thermally stable than in G1/S
[4] = cell cycle stage: early G1 (4.5 h after nocodazole release)
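For solubility change mitosis vs G1/S (difference of NP-40 vs SDS log2 ratios) in this document: synchronized HeLa Kyoto cells (double thymidine block for G1/S, nocodazole release for mitosis), protein amounts in NP-40 versus SDS lysates quantified by mass spectrometry, three biological replicates.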
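For solubility in G1/S (NP-40 vs SDS abundance) in this document: HeLa Kyoto cells arrested at G1/S by double thymidine block, proteins quantified by TMT10plex mass spectrometry in mild NP-40 versus SDS extracts, three biological replicates.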
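For thermal stability score vs G1/S (z-score of summed log2 fold changes over temperatures) in this document: synchronized HeLa Kyoto cells, proteins quantified by TMT10plex mass spectrometry, three biological replicates, mitosis taken 0.5 h after nocodazole release, G1/S directly after double thymidine block.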

Row | Sequence | solubility in G1/S (log2) (HeLa Kyoto [1]) | solubility change mitosis (log2) (HeLa Kyoto [2]) | thermal stability score (HeLa Kyoto [3]; [4]) | thermal stability score (HeLa Kyoto [3]; cell cycle stage: mitosis)
1 | MAKAAASSSLEDLDLSGEEVQRLTSAFQDPEFRRMFSQYAEELTDPENRRRYEAEITALERERGVEVRFVHPEPGHVLRTSLDGARRCFVNVCSNALVGAPSSRPGSGGDRGAAPGSHWSLPYSLAPGREYAGRSSSRYMVYDVVFHPDALALARRHEGFRQMLDATALEAVEKQFGVKLDRRNAKTLKAKYKGTPEAAVLRTPLPGVIPARPDGEPKGPLPDFPYPYQYPAAPGPRAPSPPEAALQPAPTEPRYSVVQRHHVDLQDYRCSRDSAPSPVPHELVITIELPLLRSAEQAALEVTRKLLCLDSRKPDYRLRLSLPYPVDDGRGKAQFNKARRQLVVTLPVVLPAARREPAVAVAAAAPEESADRSGTDGQACASAREGEAGPARSRAEDGGHDTCVAGAAGSGVTTLGDPEVAPPPAAAGEERVPKPGEQDLSRHAGSPPGSVEEPSPGGENSPGGGGSPCLSSRSLAWGSSAGRESARGDSSVETREESEGTGGQRSACAMGGPGTKSGEPLCPPLLCNQDKETLTLLIQVPRIQPQSLQGDLNPLWYKLRFSAQDLVYSFFLQFAPENKLSTTEPVISISSNNAVIELAKSPESHGHWREWYYGVNNDSLEERLFVNEENVNEFLEEVLSSPFKQSMSLTPPLIEVLQVTDNKIQINAKLQECSNSDQLQGKEERVNEESHLTEKEYIEHCNTPTTDSDSSIAVKALQIDSFGLVTCFQQESLDVSQMILGKSQQPESKMQSEFIKEKSATCSNEEKDNLNESVITEEKETDGDHLSSLLNKTTVHNIPGFDSIKETNMQDGSVQVIKDHVTNCAFSFQNSLLYDLD [DNAAF2] | -0.0763 | 0.11 | -0.286 | -0.17
2 | MALAVLRVLEPFPTETPPLAVLLPPGGPWPAAELGLVLALRPAGESPAGPALLVAALEGPDAGTEEQGPGPPQLLVSRALLRLLALGSGAWVRARAVRRPPALGWALLGTSLGPGLGPRVGPLLVRRGETLPVPGPRVLETRPALQGLLGPGTRLAVTELRGRARLCPESGDSSRPPPPPVVSSFAVSGTVRRLQGVLGGTGDSLGVSRSCLRGLGLFQGEWVWVAQARESSNTSQPHLARVQVLEPRWDLSDRLGPGSGPLGEPLADGLALVPATLAFNLGCDPLEMGELRIQRYLEGSIAPEDKGSCSLLPGPPFARELHIEIVSSPHYSTNGNYDGVLYRHFQIPRVVQEGDVLCVPTIGQVEILEGSPEKLPRWREMFFKVKKTVGEAPDGPASAYLADTTHTSLYMVGSTLSPVPWLPSEESTLWSSLSPPGLEALVSELCAVLKPRLQPGGALLTGTSSVLLRGPPGCGKTTVVAAACSHLGLHLLKVPCSSLCAESSGAVETKLQAIFSRARRCRPAVLLLTAVDLLGRDRDGLGEDARVMAVLRHLLLNEDPLNSCPPLMVVATTSRAQDLPADVQTAFPHELEVPALSEGQRLSILRALTAHLPLGQEVNLAQLARRCAGFVVGDLYALLTHSSRAACTRIKNSGLAGGLTEEDEGELCAAGFPLLAEDFGQALEQLQTAHSQAVGAPKIPSVSWHDVGGLQEVKKEILETIQLPLEHPELLSLGLRRSGLLLHGPPGTGKTLLAKAVATECSLTFLSVKGPELINMYVGQSEENVREVFARARAAAPCIIFFDELDSLAPSRGRSGDSGGVMDRVVSQLLAELDGLHSTQDVFVIGATNRPDLLDPALLRPGRFDKLVFVGANEDRASQLRVLSAITRKFKLEPSVSLVNVLDCCPPQLTGADLYSLCSDAMTAALKRRVHDLEEGLEPGSSALMLTMEDLLQAAARLQPSVSEQELLRYKRIQRKFAAC [PEX6] | 0.167 | -0.158 | -0.844 | -0.711
3 | MALVSADSRIAELLTELHQLIKQTQEERSRSEHNLVNIQKTHERMQTENKISPYYRTKLRGLYTTAKADAEAECNILRKALDKIAEIKSLLEERRIAAKIAGLYNDSEPPRKTMRRGVLMTLLQQSAMTLPLWIGKPGDKPPPLCGAIPASGDYVARPGDKVAARVKAVDGDEQWILAEVVSYSHATNKYEVDDIDEEGKERHTLSRRRVIPLPQWKANPETDPEALFQKEQLVLALYPQTTCFYRALIHAPPQRPQDDYSVLFEDTSYADGYSPPLNVAQRYVVACKEPKKK [SGF29] | 0.435 | 0.314 | -0.0915 | -0.207
4 | MAMQMQLEANADTSVEEESFGPQPISRLEQCGINANDVKKLEEAGFHTVEAVAYAPKKELINIKGISEAKADKILAEAAKLVPMGFTTATEFHQRRSEIIQITTGSKELDKLLQGGIETGSITEMFGEFRTGKTQICHTLAVTCQLPIDRGGGEGKAMYIDTEGTFRPERLLAVAERYGLSGSDVLDNVAYARAFNTDHQTQLLYQASAMMVESRYALLIVDSATALYRTDYSGRGELSARQMHLARFLRMLLRLADEFGVAVVITNQVVAQVDGAAMFAADPKKPIGGNIIAHASTTRLYLRKGRGETRICKIYDSPCLPEAEAMFAINADGVGDAKD [RAD51] | -0.073 | -0.238 | -1.12 | -1.89
5 | MANSMNGRNPGGRGGNPRKGRILGIIDAIQDAVGPPKQAAADRRTVEKTWKLMDKVVRLCQNPKLQLKNSPPYILDILPDTYQHLRLILSKYDDNQKLAQLSENEYFKIYIDSLMKKSKRAIRLFKEGKERMYEEQSQDRRNLTKLSLIFSHMLAEIKAIFPNGQFQGDNFRITKADAAEFWRKFFGDKTIVPWKVFRQCLHEVHQISSGLEAMALKSTIDLTCNDYISVFEFDIFTRLFQPWGSILRNWNFLAVTHPGYMAFLTYDEVKARLQKYSTKPGSYIFRLSCTRLGQWAIGYVTGDGNILQTIPHNKPLFQALIDGSREGFYLYPDGRSYNPDLTGLCEPTPHDHIKVTQEQYELYCEMGSTFQLCKICAENDKDVKIEPCGHLMCTSCLTAWQESDGQGCPFCRCEIKGTEPIIVDPFDPRDEGSRCCSIIDPFGMPMLDLDDDDDREESLMMNRLANVRKCTDRQNSPVTSPGSSPLAQRRKPQPDPLQIPHLSLPPVPPRLDLIQKGIVRSPCGSPTGSPKSSPCMVRKQDKPLPAPPPPLRDPPPPPPERPPPIPPDNRLSRHIHHVESVPSRDPPMPLEAWCPRDVFGTNQLVGCRLLGEGSPKPGITASSNVNGRHSRVGSDPVLMRKHRRHDLPLEGAKVFSNGHLGSEEYDVPPRLSPPPPVTTLLPSIKCTGPLANSLSEKTRDPVEEDDDEYKIPSSHPVSLNSQPSHCHNVKPPVRSCDNGHCMLNGTHGPSSEKKSNIPDLSIYLKGDVFDSASDPVPLPPARPPTRDNPKHGSSLNRTPSDYDLLIPPLGEDAFDALPPSLPPPPPPARHSLIEHSKPPGSSSRPSSGQDLFLLPSDPFVDLASGQVPLPPARRLPGENVKTNRTSQDYDQLPSCSDGSQAPARPPKPRPRRTAPEIHHRKPHGPEAALENVDAKIAKLMGEGYAFEEVKRALEIAQNNVEVARSILREFAFPPPVSPRLNL [CBLB] | -0.447 | 0.0975 | -0.843 | -0.129
6 | MAPSLWKGLVGIGLFALAHAAFSAAQHRSYMRLTEKEDESLPIDIVLQTLLAFAVTCYGIVHIAGEFKDMDATSELKNKTFDTLRNHPSFYVFNHRGRVLFRPSDTANSSNQDALSSNTSLKLRKLESLRR [MMGT1] | -0.125 | -0.109 | -0.869 | -1.57
7 | MASDASHALEAALEQMDGIIAGTKTGADLSDGTCEPGLASPASYMNPFPVLHLIEDLRLALEMLELPQERAALLSQIPGPTAAYIKEWFEESLSQVNHHSAASNETYQERLARLEGDKESLILQVSVLTDQVEAQGEKIRDLEVCLEGHQVKLNAAEEMLQQELLSRTSLETQKLDLMTEVSELKLKLVGMEKEQREQEEKQRKAEELLQELRHLKIKVEELENERNQYEWKLKATKAEVAQLQEQVALKDAEIERLHSQLSRTAALHSESHTERDQEIQRLKMGMETLLLANEDKDRRIEELTGLLNQYRKVKEIVMVTQGPSERTLSINEEEPEGGFSKWNATNKDPEELFKQEMPPRCSSPTVGPPPLPQKSLETRAQKKLSCSLEDLRSESVDKCMDGNQPFPVLEPKDSPFLAEHKYPTLPGKLSGATPNGEAAKSPPTICQPDATGSSLLRLRDTESGWDDTAVVNDLSSTSSGTESGPQSPLTPDGKRNPKGIKKFWGKIRRTQSGNFYTDTLGMAEFRRGGLRATAGPRLSRTRDSKGQKSDANAPFAQWSTERVCAWLEDFGLAQYVIFARQWVSSGHTLLTATPQDMEKELGIKHPLHRKKLVLAVKAINTKQEEKSALLDHIWVTRWLDDIGLPQYKDQFHESRVDRRMLQYLTVNDLLFLKVTSQLHHLSIKCAIHVLHVNKFNPHCLHRRPADESNLSPSEVVQWSNHRVMEWLRSVDLAEYAPNLRGSGVHGGLIILEPRFTGDTLAMLLNIPPQKTLLRRHLTTKFNALIGPEAEQEKREKMASPAYTPLTTTAKVRPRKLGFSHFGNIRKKKFDESTDYICPMEPSDGVSDSHRVYSGYRGLSPLDAPELDGLDQVGQIS [PPFIBP2] | 0.218 | -0.265 | 0.328 | 0.498
